Measurements reported in patent publication US20060148017A1 (published 2006).
Where a chain is given by its changes, count along the chain named.

What was measured:
[1] = tested on: T1, Zip4S
T1 sequence: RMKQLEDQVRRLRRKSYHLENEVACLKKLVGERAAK

[2] = tested on: T2, Zip 2
T2 sequence: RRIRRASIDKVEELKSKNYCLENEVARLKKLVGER

[3] = tested on: T3, Zip4T
T3 sequence: T1 sequence with S16T

[4] = tested on: T4, Zip 1
T4 sequence: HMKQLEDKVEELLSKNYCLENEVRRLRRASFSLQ

[5] = target: the molecule itself; test: circular dichroism thermal denaturation (self-association of unmodified Zip4S is implied)
Procedure: The circular dichroism (measured in units of ellipticity) of proteins at 222 nm provides a measure of the amount of α-helix present in the structure, with a large, negative ellipticity indicting a high level of helicity. […] In all experiments described herein, peptide concentration was determined by tyrosine absorbance at 280 nm in 6M GuHCl.

Ca2+/Calmodulin-dependent Protein Kinase (CaMKII)
timecourse of phosphorylation (32P incorporation) [1]: CaMKII was unable to phosphorylate Zip4S

protein kinase A (PKA)
phosphorylation by reverse-phase HPLC and radioactive assay [2]: The peptides were both shown to be good substrates for PKA by reverse-phase HPLC and radioactive assay | timecourse of phosphorylation (32P incorporation) [3]: Zip4T is also phosphorylated, but at a slower rate, with full phosphorylation achieved in 30 minutes in this assay | phosphorylation by reverse-phase HPLC and radioactive assay [4]: The peptides were both shown to be good substrates for PKA by reverse-phase HPLC and radioactive assay

RMKQLEDQVRRLRRKSYHLENEVACLKKLVGERAAK (GCN4 numbering)) [Zip4S]
binding result [5]: binds
